Data reported in article PMC5943514, “Substrate specificity of human MCPIP1 endoribonuclease” (Scientific Reports, 2018).
Positions count from the first letter of the chain named. In names and notes the source's numbering stands. Several values for one entry are separate records, joined by “and”; a condition that tells them apart may be missing. Equal values may be shown once.

How the values were obtained:
PIN D141N [1] = target: T1, PIN D141N (Homo sapiens, UniProt Q5D1E8 134-297, D141N); assay: fluorescence intensity titration; 2.5 mM Mg2+; 25 mM Tris-HCl pH 7.9, 150 mM NaCl, 5% glycerol, 2.5 mM MgCl2, 1 mM DTT, 0.5 mM EDTA, 0.05 mM ZnCl2, 25 C; oligo 2 nM (full length) or 20 nM (PIN, PIN-ZF); details: protein: recombinant, tags: N-terminal His6, chain copies: 2
T1 sequence: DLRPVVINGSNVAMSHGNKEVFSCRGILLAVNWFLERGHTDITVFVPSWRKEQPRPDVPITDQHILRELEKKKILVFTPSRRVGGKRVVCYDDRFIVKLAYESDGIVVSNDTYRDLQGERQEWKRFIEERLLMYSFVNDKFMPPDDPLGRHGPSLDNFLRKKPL

[2] = target: T2, MCPIP1 D141N (Regnase-1), full length (Homo sapiens, UniProt Q5D1E8 1-599, D141N); assay: as above; details: protein: recombinant, tags: none stated (purified by ion exchange), chain copies: 2
T2 sequence: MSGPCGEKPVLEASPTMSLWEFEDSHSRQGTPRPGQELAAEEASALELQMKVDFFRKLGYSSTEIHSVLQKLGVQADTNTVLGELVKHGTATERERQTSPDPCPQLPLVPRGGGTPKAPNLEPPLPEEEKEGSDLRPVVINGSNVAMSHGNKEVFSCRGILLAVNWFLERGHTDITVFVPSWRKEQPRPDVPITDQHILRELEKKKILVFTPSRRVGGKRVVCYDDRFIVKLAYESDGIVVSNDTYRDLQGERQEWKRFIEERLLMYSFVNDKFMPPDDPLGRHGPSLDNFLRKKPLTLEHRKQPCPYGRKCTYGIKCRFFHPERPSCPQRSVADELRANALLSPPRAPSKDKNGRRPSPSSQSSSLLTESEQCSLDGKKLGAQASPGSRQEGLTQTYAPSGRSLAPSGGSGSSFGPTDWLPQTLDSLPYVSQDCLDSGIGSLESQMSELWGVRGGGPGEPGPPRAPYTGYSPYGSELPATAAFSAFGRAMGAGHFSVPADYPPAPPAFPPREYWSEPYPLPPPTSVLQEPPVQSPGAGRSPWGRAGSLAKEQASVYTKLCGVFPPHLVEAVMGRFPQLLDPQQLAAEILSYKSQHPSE

PIN-ZF D141N [3] = target: T3, PIN-ZF D141N (Homo sapiens, UniProt Q5D1E8 134-327, D141N); assay: as above; details: protein: recombinant, tags: N-terminal His6, chain copies: 2
T3 sequence: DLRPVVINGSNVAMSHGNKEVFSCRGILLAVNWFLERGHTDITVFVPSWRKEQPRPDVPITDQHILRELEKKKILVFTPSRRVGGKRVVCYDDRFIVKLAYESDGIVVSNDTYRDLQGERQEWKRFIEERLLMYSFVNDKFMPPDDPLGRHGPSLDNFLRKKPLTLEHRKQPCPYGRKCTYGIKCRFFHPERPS

[4] = target: the molecule itself; assay: SEC; analytical Superdex 200 Increase 10/300 GL calibrated with protein standards; 25 mM Tris pH 7.9, 300 mM NaCl, 10% glycerol, 1 mM DTT, 0.5 mM EDTA, also with 1.6 M urea; apparent molecular weight from the calibration curve, multiple Gaussian peak fit
PIN D141N [5] = target: T1, PIN D141N; assay: fluorescence intensity titration; 2.5 mM Mg2+; 20 nM oligo; sequential 2:1 model; 25 mM Tris-HCl pH 7.9, 150 mM NaCl, 5% glycerol, 2.5 mM MgCl2, 1 mM DTT, 0.5 mM EDTA, 0.05 mM ZnCl2, 25 C; oligo 2 nM (full length) or 20 nM (PIN, PIN-ZF); details: protein: recombinant; tags: N-terminal His6; chain copies: 2; label: 5' 6-FAM; hairpin
PIN-ZF D141N [6] = target: T3, PIN-ZF D141N; assay: as above; details: protein: recombinant; tags: N-terminal His6; chain copies: 2; label: 5' 6-FAM; hairpin
[7] = label: 5' 6-FAM on strand 1, blunt, strands mixed 1:1.2

**Q.** With TGTTGTTCTCTA (ssDNA) [mIL-6 82-93 ssDNA] as the binder, how does the Kd (PIN D141N [1]; label: 5' 6-FAM) read?
**A.** Its Kd is 21.7 ± 6.6 nM.

**Q.** And the Kd ([2]; label: 5' 6-FAM)?
**A.** Its Kd is 18.3 ± 8.2 nM.

**Q.** And the Kd (PIN-ZF D141N [3]; label: 5' 6-FAM)?
**A.** The Kd was 36 ± 20 nM.

B1: MCPIP1WT (Monocyte Chemoattractant Protein-1-Induced Protein 1), full-length (enzyme, human, UniProt Q5D1E8 1-599, looked up)
chain: T2 sequence with N141D
notes: human MCPIP1 encoded by ZC3H12A (synthetic gene optimised for E. coli, GenScript), full length, 1-599 aa; printed molecular weight 65.7 kDa; no tag is stated for the full-length protein; In solution a mixture of tetramer, dimer and monomer; also called Regnase-1; Regnase1; source: E. coli BL21-CodonPlus-RIL, purified (TMAE ion exchange in denaturing conditions, dialysis, Superdex 200 gel …)
**Q.** Which “stoichiometry N” value [4] does the source give for B1 here?
**A.** Its value is 4 and 2.

B2: MCPIP1_(D141N), full-length (enzyme, human, UniProt Q5D1E8 1-599, looked up)
chain: T2 sequence
notes: human MCPIP1 encoded by ZC3H12A, full length, 1-599 aa, catalytic site mutant D141N; no tag is stated for the full-length protein; also called MCPIP_(D141N); source: E. coli BL21-CodonPlus-RIL, purified (TMAE ion exchange in denaturing conditions, dialysis, Superdex 200 gel filtration)
**Q.** B2 was tested. Which “stoichiometry N” value [4] did it give?
**A.** Its value is 2 and 4.

**Q.** Which Kd (PIN D141N [1]; label: 5' 6-FAM, hairpin) does the source give for UGGAAAGUAUCUUUCCU (structured_RNA) [consensus stem-loop] here?
**A.** Its Kd is 36 ± 17 nM.

**Q.** And the Kd ([2]; label: 5' 6-FAM, hairpin)?
**A.** The Kd was 3.8 ± 2.8 nM.

**Q.** And the Kd (PIN-ZF D141N [3]; label: 5' 6-FAM, hairpin)?
**A.** Its Kd is 9.1 ± 3.2 nM.

**Q.** For UGUUCUCUACGAAGAAC (structured_RNA) [mIL-6 85-101 short stem], which Kd (PIN D141N [1]; label: 5' 6-FAM, hairpin) is on record?
**A.** Its Kd is 20.7 ± 7.2 nM.

**Q.** And the Kd ([2]; label: 5' 6-FAM, hairpin)?
**A.** Its Kd is 9.2 ± 4 nM.

**Q.** What about the Kd (PIN-ZF D141N [3]; label: 5' 6-FAM, hairpin) of the same binder?
**A.** Its Kd is 20 ± 10 nM.

**Q.** UGUUGUACACUACGAUGUACUGACA (structured_RNA) [mIL-6 82-106 YR] was tested. Which Kd (PIN D141N [1]; label: 5' 6-FAM, hairpin) did it give?
**A.** Its Kd is 25.1 ± 7 nM.

**Q.** And the Kd ([2]; label: 5' 6-FAM, hairpin)?
**A.** The Kd was 9.5 ± 5.2 nM.

**Q.** And the Kd (PIN-ZF D141N [3]; label: 5' 6-FAM, hairpin)?
**A.** Its Kd is 14.4 ± 9.6 nM.

B3: mIL-6 82-93 dsDNA (dsDNA)
DNA 1: TGTTGTTCTCTA
DNA 2: TAGAGAACAACA
**Q.** Which results are given for B3?
**A.** Kd (PIN D141N [1]; [7]): 56 ± 17 nM; Kd [2, 7]: 118 ± 49 nM; Kd (PIN-ZF D141N [3]; [7]): 80 ± 30 nM

**Q.** For UGUUGUUCUCUACGAAGAACUGACA (structured_RNA) [mIL-6 82-106 5'FAM], which Kd (PIN D141N [5]) is on record?
**A.** The Kd was 24.1 ± 7.3 nM.

**Q.** What about the Kd (PIN-ZF D141N [6]) of the same binder?
**A.** Its Kd is 6.6 ± 3.1 nM.

**Q.** For ACAGUCAAGACUACGAUCUUGUUGU (structured_RNA) [mIL-6 82-106 RS (reverse stem)], which Kd (PIN D141N [1]; label: 5' 6-FAM, hairpin) is on record?
**A.** The Kd was 39.3 ± 8.6 nM.

**Q.** What about the Kd ([2]; label: 5' 6-FAM, hairpin) of the same binder?
**A.** Its Kd is 9.8 ± 2.3 nM.

**Q.** And the Kd (PIN-ZF D141N [3]; label: 5' 6-FAM, hairpin)?
**A.** Its Kd is 15.1 ± 7.3 nM.

**Q.** For UGUUGUUCUCUA (ssRNA) [mIL-6 82-93 ssRNA], which Kd (PIN D141N [1]; label: 5' 6-FAM, unstructured) is on record?
**A.** Its Kd is 41 ± 12 nM.

**Q.** What about the Kd ([2]; label: 5' 6-FAM, unstructured) of the same binder?
**A.** The Kd was 19 ± 11 nM.

**Q.** What about the Kd (PIN-ZF D141N [3]; label: 5' 6-FAM, unstructured) of the same binder?
**A.** The Kd was 34 ± 18 nM.

**Q.** Which Kd (PIN D141N [1]; label: 5' 6-FAM, unstructured) does the source give for UGUUGUU (ssRNA) [mIL-6 82-88 ssRNA] here?
**A.** The Kd was 40 ± 12 nM.

**Q.** And the Kd ([2]; label: 5' 6-FAM, unstructured)?
**A.** Its Kd is 14.5 ± 8.1 nM.

**Q.** What about the Kd (PIN-ZF D141N [3]; label: 5' 6-FAM, unstructured) of the same binder?
**A.** The Kd was 32 ± 20 nM.

**Q.** How did the Kd (PIN D141N [1]; label: 3' 6-FAM, hairpin) turn out when UGUUGUUCUCUACGAAGAACUGACA (structured_RNA) [mIL-6 82-106 3'FAM] was run?
**A.** Its Kd is 21.8 ± 6.3 nM.

**Q.** And the Kd ([2]; label: 3' 6-FAM, hairpin)?
**A.** Its Kd is 8.6 ± 2.6 nM.

**Q.** And the Kd (PIN-ZF D141N [3]; label: 3' 6-FAM, hairpin)?
**A.** Its Kd is 4.8 ± 1.8 nM.

**Q.** With UUUUUUUUUUUU (ssRNA) [poly-U 12 nt] as the binder, how does the Kd (PIN D141N [1]; label: 5' 6-FAM) read?
**A.** Its Kd is 39 ± 11 nM.

**Q.** And the Kd ([2]; label: 5' 6-FAM)?
**A.** The Kd was 14.8 ± 7.2 nM.

**Q.** And the Kd (PIN-ZF D141N [3]; label: 5' 6-FAM)?
**A.** Its Kd is 43 ± 23 nM.

**Q.** Which results are given for UGUUCUCUAUGGAGAACU (structured_RNA) [hIL-6 82-99]?
**A.** Kd (PIN D141N [1]; label: 5' 6-FAM, hairpin): 15.1 ± 4.5 nM; Kd ([2]; label: 5' 6-FAM, hairpin): 4.1 ± 3.6 nM; Kd (PIN-ZF D141N [3]; label: 5' 6-FAM, hairpin): 13.2 ± 6.8 nM
